Experimental findings from publication PMC11505714, “A Double-Stranded Aptamer for Highly Sensitive Fluorescent Detection of Glutathione S-Transferases” are described below.

The target of the data set is Glutathione S-transferase (GST) (UniProt P08515 1-218). Kind of data set: bead fluorescence, confocal microscopy; 37 °C; BB: 20 mM HEPES pH 7.4, 120 mM NaCl, 5 mM KCl, 2 mM MgCl2; wash BB + 0.05% Tween 20; 37 °C, 40 min (section 2.1 gives another binding buffer: DPBS, 5 mM MgCl2). The conditions noted are these: protein: recombinant, tags: biotinylated, on streptavidin agarose beads, chain copies: 2.
Glutathione S-transferase (GST), sequence (P08515 whole entry): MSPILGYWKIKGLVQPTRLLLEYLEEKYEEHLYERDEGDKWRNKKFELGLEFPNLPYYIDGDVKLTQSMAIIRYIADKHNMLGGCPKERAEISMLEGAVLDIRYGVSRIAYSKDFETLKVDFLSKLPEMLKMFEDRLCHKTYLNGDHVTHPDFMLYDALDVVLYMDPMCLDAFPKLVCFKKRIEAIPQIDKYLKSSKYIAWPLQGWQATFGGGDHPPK

B1: Seq3 (ssDNA)
DNA: AGCGTCGGATACCACTACTATGCCGGTCGGGGGTTGGGGATCTCTCTTGGGGGAGGGTTATCATGGAGTTCGTGGTCAG
Turning to B1, the Kd (label: FAM (also called AF488), two small stem-loops with a large loop (Mfold)) was found to be 34 ± 5.6 nM.

B2: Seq3-2 (ssDNA)
DNA: AGCGTCGGATACCACTACTATGCCGGTCGGGGGTTGGGGATCTCTCTTGGGGGAGGGTT
Consider B2, for which the Kd (label: FAM) came to 118 ± 21.7 nM.

B3: Seq3-1 (ssDNA)
DNA: TGCCGGTCGGGGGTTGGGGATCTCTCTTGGGGGAGGGTTATCATGGAGTTCGTGGTCAG
Regarding B3, where the note is “label: FAM”, the Kd was found to be 29.3 ± 4.8 nM. Regarding TGCCGGTCGGGGGTTGGGGATCTCTCTTGGGGGAGGGTT (ssDNA) [Seq3-3], the equilibrium dissociation constant (Kd) (label: FAM) worked out at 268 ± 89.4 nM.
